One block for each binder: values may come before it. Where no end group is shown, it is not given here.
How the values were obtained:
UBE2D2/UbcH5b = UBE2D2/UbcH5b (UniProt P62837 1-147); assay: NMR titration
[1] = molecular target: full length 6xHis tagged p53 (human, UniProt P04637 1-393); assay: pull-down
Sequence of full length 6xHis tagged p53 (P04637 whole entry): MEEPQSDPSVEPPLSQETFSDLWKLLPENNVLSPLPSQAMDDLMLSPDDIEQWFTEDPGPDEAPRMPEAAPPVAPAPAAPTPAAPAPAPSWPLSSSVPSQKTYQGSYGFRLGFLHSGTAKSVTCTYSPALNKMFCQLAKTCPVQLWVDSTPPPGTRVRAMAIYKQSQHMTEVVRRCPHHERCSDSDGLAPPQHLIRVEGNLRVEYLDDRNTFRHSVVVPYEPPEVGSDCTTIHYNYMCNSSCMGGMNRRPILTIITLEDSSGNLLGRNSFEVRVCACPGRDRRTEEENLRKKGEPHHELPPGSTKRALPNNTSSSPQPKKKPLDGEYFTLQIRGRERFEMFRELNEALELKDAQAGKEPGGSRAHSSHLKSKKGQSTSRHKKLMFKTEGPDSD

Kd (UBE2D2/UbcH5b): ~200 µM
B1: Pirh2 RING domain (GST removed) (domain or fragment)
chain: ENVSRQNCPICLEDIHTSRVVAHVLPCGHLLHRTCYEEMLKEGYRCPLCMHS
modifications: cysteine pairing not given here; also: 2 Zn ions bound

binding result [1]: binds
B2: GST-Pirh2 NTD (domain or fragment, human, UniProt Q96PM5 1-137, looked up)
chain: MAATAREDGASGQERGQRGCEHYDRGCLLKAPCCDKLYTCRLCHDNNEDHQLDRFKVKEVQCINCEKIQHAQQTCEECSTLFGEYYCDICHLFDKDKKQYHCENCGICRIGPKEDFFHCLKCNLCLAMNLQGRHKCI
